“Also recorded” adds a separate entry of the source. Residues, ends and D or L forms follow the SMILES beside them.
Assays:
Conditions in all cases: CM5 chip, 10-50 μM peptide
human Ang4 = biological target: T1, human Ang4 (Homo sapiens, UniProt Q9Y264); assay: BIACORE (SPR) binding of peptides to immobilized recombinant Ang4
T1 construct: purchased R&D Systems 964-AN-025/CF
T1 sequence (Q9Y264 25-503): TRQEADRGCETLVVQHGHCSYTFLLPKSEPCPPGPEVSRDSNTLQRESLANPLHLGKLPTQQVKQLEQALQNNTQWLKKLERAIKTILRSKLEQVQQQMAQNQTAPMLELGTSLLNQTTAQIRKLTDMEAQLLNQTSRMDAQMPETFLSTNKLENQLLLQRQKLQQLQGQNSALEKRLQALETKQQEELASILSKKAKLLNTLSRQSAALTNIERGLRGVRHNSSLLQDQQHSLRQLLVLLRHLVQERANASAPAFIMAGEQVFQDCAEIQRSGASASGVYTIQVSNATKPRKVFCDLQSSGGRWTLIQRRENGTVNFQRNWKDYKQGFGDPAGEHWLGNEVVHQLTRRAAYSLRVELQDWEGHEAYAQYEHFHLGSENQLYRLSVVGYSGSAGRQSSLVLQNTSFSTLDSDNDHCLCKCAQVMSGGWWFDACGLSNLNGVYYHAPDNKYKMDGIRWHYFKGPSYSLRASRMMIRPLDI
Source text: (§1) The capability of CGEN-H2 [SEQ ID NO: 1], CGEN-H3 [SEQ ID NO: 2], CGEN-A8 [SEQ ID NO: 3], CGEN-H7 [SEQ ID NO: 4], CGEN-G4 [SEQ ID NO: 5], CGEN-G6 [SEQ ID NO: 6], CGEN-F9 [SEQ ID NO: 7], CGEN-F12 [SEQ ID NO: 8], CGEN-C6-30 [SEQ ID NO: 9], CGEN-All [SEQ ID NO: 10], and CGEN-G2 [SEQ ID NO: 11] to specifically bind to recombinant Ang1, Ang2, and Ang4 was investigated using the BIACORE technology, measuring protein-protein interaction and binding affinity (Wendler et al 2005, Anal Bioanal Chem, 381: 1056-1064). The technology is based on surface plasmon resonance (SPR), an optical phenomenon that enables detection of unlabeled interactants in real time. The SPR-based biosensors can be used in determination of active concentration, screening and characterization in terms of both affinity and kinetics.
(§2) Peptide-protein binding was analyzed using surface plasmon resonance. Analysis of the to interaction between CGEN-H2 [SEQ ID NO: 1], CGEN-H3 [SEQ ID NO: 2], CGEN-A8 [SEQ ID NO: 3], CGEN-H7 [SEQ ID NO: 4], CGEN-G4 [SEQ ID NO: 5], CGEN-G6 [SEQ ID NO: 6], CGEN-F9 [SEQ ID NO: 7], CGEN-F12 [SEQ ID NO: 8], CGEN-C6 [SEQ ID NO: 9], CGEN-A11 [SEQ ID NO: 10], and CGEN-G2 [SEQ ID NO: 11] peptides and recombinant human Ang1 carrier-free (R&D Systems, Cat#923-AN-025/CF, Lot#FHW1507031), human Ang2 carrier-free (R&D Systems, Cat#623-AN-025/CF, Lot#BNO0457121), and human Ang4 carrier-free (R&D Systems, Cat#964-AN-025/CF, Lot#ELM025121) was conducted using the BIAcore biosensor (Pharmacia Biosensor, Uppsala, Sweden). The recombinant Ang1, Ang2, and Ang4 were immobilized directly to a CM5 sensor chip. Solutions containing 10-50 μM of CGEN-H2 [SEQ ID NO: 1], CGEN-H3 [SEQ ID NO: 2], CGEN-A8 [SEQ ID NO: 3], CGEN-H7 [SEQ ID NO: 4], CGEN-G4 [SEQ ID NO: 5], CGEN-G6 [SEQ ID NO: 6], CGEN-F9 [SEQ ID NO: 7], CGEN-F12 [SEQ ID NO: 8], CGEN-C6 [SEQ ID NO: 9], CGEN-A11 [SEQ ID NO: 10], and CGEN-G2 [SEQ ID NO: 11] peptides were injected into the sample chamber of the BIACORE device at a rate of […] and the interaction was monitored using surface plasmon resonance.
(§3) Solutions containing different concentrations of CGEN-G6 [SEQ ID NO: 6], CGEN-F9 [SEQ ID NO: 7], CGEN-F12 [SEQ ID NO: 8], CGEN-A11 [SEQ ID NO: 10], and CGEN-G2 [SEQ ID NO: 11] peptides (as indicated in Table 2) were injected into the sample chamber of the BIACORE device at a rate of […] and the interaction was monitored using surface plasmon resonance. As a background, the solutions were also injected onto an empty flow cell with no immobilized ligand and the in binding levels achieved were subtracted. Data was analyzed using BIAevaluation software. The affinity constant of the interaction between CGEN-G6 [SEQ ID NO: 6], CGEN-F9 [SEQ ID NO: 7], CGEN-F12 [SEQ ID NO: 8], CGEN-C6 [SEQ ID NO: 9], CGEN-A11 [SEQ ID NO: 10], and CGEN-G2 [SEQ ID NO: 11] and Ang1, Ang2, or Ang4 was determined by direct kinetic analysis. The 1:1 Langmuir binding model was used to fit kinetic data.
(§4) Table 2 summarizes results of analysis of CGEN-G6 [SEQ ID NO: 6], CGEN-F9 [SEQ ID NO: 7], CGEN-F12 [SEQ ID NO: 8], CGEN-A11 [SEQ ID NO: 10], and CGEN-G2 [SEQ ID NO: 11] interaction with Ang1, Ang2, or Ang4. Kinetic measurements were done at the indicated concentration range, and they are presented as KD (M). CGEN-F12 [SEQ ID NO: 8] bound to Ang1 and Ang4 with high affinity. The specificity of this binding is not clear.

human Ang2 = biological target: T2, human Ang2 (Homo sapiens, UniProt O15123); assay: BIACORE (SPR) binding of peptides to immobilized recombinant Ang2
T2 construct: purchased R&D Systems 623-AN-025/CF
T2 sequence (O15123 19-496): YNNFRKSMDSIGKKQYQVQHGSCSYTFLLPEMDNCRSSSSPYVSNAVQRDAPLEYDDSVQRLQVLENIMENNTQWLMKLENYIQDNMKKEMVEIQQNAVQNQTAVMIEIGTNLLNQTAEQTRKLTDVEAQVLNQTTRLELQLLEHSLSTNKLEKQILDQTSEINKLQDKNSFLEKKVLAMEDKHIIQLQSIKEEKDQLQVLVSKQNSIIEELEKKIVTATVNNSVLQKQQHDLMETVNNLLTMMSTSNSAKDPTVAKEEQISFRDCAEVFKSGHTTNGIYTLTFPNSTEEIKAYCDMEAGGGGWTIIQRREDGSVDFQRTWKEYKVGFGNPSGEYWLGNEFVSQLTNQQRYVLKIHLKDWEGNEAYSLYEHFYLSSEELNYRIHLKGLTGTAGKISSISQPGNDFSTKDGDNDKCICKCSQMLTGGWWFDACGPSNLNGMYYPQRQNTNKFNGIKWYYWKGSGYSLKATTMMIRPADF
Source text: as §1, §2, §3, §4

recombinant human Ang1 = biological target: T3, recombinant human Ang1 (Homo sapiens, UniProt Q15389); assay: BIACORE (SPR) binding of peptides to immobilized recombinant Ang1
T3 construct: purchased R&D Systems 923-AN-025/CF
T3 sequence (Q15389 16-498): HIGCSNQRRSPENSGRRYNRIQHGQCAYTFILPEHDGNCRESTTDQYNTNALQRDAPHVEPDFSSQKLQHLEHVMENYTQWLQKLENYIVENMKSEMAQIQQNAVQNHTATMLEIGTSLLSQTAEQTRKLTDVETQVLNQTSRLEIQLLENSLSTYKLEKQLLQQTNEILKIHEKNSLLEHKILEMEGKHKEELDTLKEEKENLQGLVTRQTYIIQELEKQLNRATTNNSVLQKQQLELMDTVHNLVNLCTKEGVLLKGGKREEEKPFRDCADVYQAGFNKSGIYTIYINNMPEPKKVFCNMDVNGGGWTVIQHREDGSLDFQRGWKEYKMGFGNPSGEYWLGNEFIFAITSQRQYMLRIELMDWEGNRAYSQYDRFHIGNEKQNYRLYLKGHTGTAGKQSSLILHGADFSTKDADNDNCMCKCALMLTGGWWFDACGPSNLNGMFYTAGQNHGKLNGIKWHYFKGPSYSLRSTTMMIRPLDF
Source text: as §1, §2, §3, §4

Row | Compound | binding to immobilized Ang4 (in words) (human Ang4) | binding to immobilized Ang2 (in words) (human Ang2) | binding to immobilized Ang1 (in words) (recombinant human Ang1)
1 | QLQVLVSKQNSIIEEL (Ac-QLQVLVSKQNSIIEEL-NH2) [CGEN-G4, amino acid residues 215-230 of angiopoietin 2] | none or low binding | none or low binding | none or low binding
2 | CC(=O)N[C@@H](CCC(N)=O)C(=O)N[C@@H](Cc1c[nH]cn1)C(=O)N[C@@H](CO)C(=O)N[C@@H](CC(C)C)C(=O)N[C@@H](CCCNC(=N)N)C(=O)N[C@@H](CCC(N)=O)C(=O)N[C@@H](CC(C)C)C(=O)N[C@@H](CC(C)C)C(=O)N[C@H](C(=O)N[C@@H](CC(C)C)C(=O)N[C@@H](CC(C)C)C(=O)N[C@@H](CCCNC(=N)N)C(=O)N[C@@H](Cc1c[nH]cn1)C(=O)N[C@@H](CC(C)C)C(=O)N[C@H](C(=O)N[C@@H](CCC(N)=O)C(=O)N[C@@H](CCC(=O)O)C(=O)N[C@@H](CCCNC(=N)N)C(=O)N[C@@H](C)C(=O)N[C@@H](CC(N)=O)C(=O)N[C@@H](C)C(=O)N[C@@H](CO)C(=O)N[C@@H](C)C(N)=O)C(C)C)C(C)C [CGEN-F12] (Ac-QHSLRQLLVLLRHLVQERANASA-NH2) | capable of binding; also recorded: high affinity | capable of binding | capable of binding; also recorded: high affinity
3 | CC[C@H](C)[C@H](NC(=O)[C@H](CO)NC(=O)[C@H](C)NC(=O)[C@H](CC(C)C)NC(=O)[C@H](CCC(=O)O)NC(=O)[C@H](CCC(=O)O)NC(=O)[C@H](CCC(N)=O)NC(C)=O)C(=O)N[C@@H](CC(C)C)C(=O)N[C@@H](CO)C(=O)N[C@@H](CCCCN)C(=O)N[C@@H](CCCCN)C(=O)N[C@@H](C)C(=O)N[C@@H](CCCCN)C(=O)N[C@@H](CC(C)C)C(=O)N[C@@H](CC(C)C)C(=O)N[C@@H](CC(N)=O)C(=O)N[C@H](C(=O)N[C@@H](CC(C)C)C(=O)N[C@@H](CO)C(=O)N[C@@H](CCCNC(=N)N)C(=O)N[C@@H](CCC(N)=O)C(=O)N[C@@H](CO)C(=O)N[C@@H](C)C(=O)N[C@@H](C)C(=O)N[C@@H](CC(C)C)C(=O)N[C@H](C(=O)N[C@@H](CC(N)=O)C(=O)N[C@H](C(=O)N[C@@H](CCC(=O)O)C(=O)N[C@@H](CCCNC(=N)N)C(=O)NCC(=O)N[C@@H](CC(C)C)C(=O)N[C@@H](CCCNC(=N)N)C(=O)NCC(=O)N[C@H](C(=O)N[C@@H](CCCNC(=N)N)C(N)=O)C(C)C)[C@@H](C)CC)[C@@H](C)O)[C@@H](C)O [CGEN-F9] (Ac-QEELASILSKKAKLLNTLSRQSAALTNIERGLRGVR-NH2) | capable of binding | capable of binding | capable of binding
4 | LMDTVHNLVNL (Ac-LMDTVHNLVNL-NH2) [CGEN-A8, amino acid residues 254-264 of angiopoietin 1] | none or low binding | none or low binding | none or low binding
5 | TDMEAQLLNQTSRMDAQM (Ac-TDMEAQLLNQTSRMDAQM-NH2) [CGEN-C6, amino acid residues 150-167 of angiopoietin 4] | did not bind | not sufficiently strong | did not bind

More lines, now with the values ahead:

Row | binding to immobilized Ang4 (in words) (human Ang4) | binding to immobilized Ang2 (in words) (human Ang2) | binding to immobilized Ang1 (in words) (recombinant human Ang1) | Compound
6 | none or low binding | none or low binding | none or low binding | NEILKIHEKNSLLEHKILEMEGKHK (Ac-NEILKIHEKNSLLEHKILEMEGKHK-NH2) [CGEN-H7, amino acid residues 182-206 of angiopoietin 1]
7 | none or low binding | none or low binding | none or low binding | LKEEKENLQGLVTRQTYIIQELEKQLNRAT (Ac-LKEEKENLQGLVTRQTYIIQELEKQLNRAT-NH2) [CGEN-H2, amino acid residues 212-241 of angiopoietin 1]
8 | none or low binding | none or low binding | none or low binding | TNNSVLQKQQL (Ac-TNNSVLQKQQL-NH2) [CGEN-H3, amino acid residues 242-252 of angiopoietin 1]

Source: patent US9255132B2, “Angiopoietin derived peptides” (Compugen Ltd., priority 2008, dated 2016)
